Where no end group is shown, it is not given here. [ ]: non-standard residue; d: D form. dOrn = NCCC[C@@H](N)C(=O)O

The record followed here is US20090048161A1 (VALORISATION HSJ SOCIETE EN COMMANDITE, published 2009).

Test in all cases: cell-based or functional assay
The target in experiment [1] is T1, human Interleukin-1 receptor (IL-1R-alpha) (human, UniProt P14778 18-569).
T1 sequence: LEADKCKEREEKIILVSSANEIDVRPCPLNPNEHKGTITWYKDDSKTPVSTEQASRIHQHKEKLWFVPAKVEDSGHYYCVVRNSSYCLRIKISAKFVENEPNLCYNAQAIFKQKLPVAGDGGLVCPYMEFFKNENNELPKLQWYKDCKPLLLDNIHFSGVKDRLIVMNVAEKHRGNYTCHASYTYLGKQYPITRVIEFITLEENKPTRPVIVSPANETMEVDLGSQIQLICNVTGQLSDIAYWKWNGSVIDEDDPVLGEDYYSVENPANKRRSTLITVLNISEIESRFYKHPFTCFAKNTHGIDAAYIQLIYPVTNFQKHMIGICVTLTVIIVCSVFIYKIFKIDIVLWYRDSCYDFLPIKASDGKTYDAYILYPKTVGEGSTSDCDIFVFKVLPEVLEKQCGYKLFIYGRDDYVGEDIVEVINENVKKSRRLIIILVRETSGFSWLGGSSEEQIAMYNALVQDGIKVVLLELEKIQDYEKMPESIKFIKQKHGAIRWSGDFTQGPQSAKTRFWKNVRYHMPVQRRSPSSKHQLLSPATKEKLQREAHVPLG

For experiment [2], the target named is T1, human Interleukin-1 receptor …. This is another data set of the same source.
The target in experiment [3] is T2, IL-1R of pig (piglet pial vessels; porcine endothelial cells) (porcine (piglet), UniProt A0A5G2QSI4 18-572).
T2 sequence: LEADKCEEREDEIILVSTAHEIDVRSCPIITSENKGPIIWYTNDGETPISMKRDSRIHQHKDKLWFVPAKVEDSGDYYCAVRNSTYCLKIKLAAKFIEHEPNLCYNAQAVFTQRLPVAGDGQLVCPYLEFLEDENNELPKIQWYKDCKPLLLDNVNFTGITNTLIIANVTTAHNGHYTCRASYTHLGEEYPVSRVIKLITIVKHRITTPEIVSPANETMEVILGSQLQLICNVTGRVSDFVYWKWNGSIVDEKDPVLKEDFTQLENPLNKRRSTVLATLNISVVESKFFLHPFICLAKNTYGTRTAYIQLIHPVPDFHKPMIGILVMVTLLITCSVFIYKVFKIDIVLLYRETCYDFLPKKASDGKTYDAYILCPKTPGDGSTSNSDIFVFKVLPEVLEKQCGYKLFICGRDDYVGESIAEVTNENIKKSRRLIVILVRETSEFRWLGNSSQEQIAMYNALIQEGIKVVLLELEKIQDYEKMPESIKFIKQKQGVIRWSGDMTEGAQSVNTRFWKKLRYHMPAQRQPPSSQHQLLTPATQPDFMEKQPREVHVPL

Experiment [4] addresses human Insulin-like growth factor 1 receptor (IGF-1R) (human, UniProt P08069 31-1367).
The target in experiment [5] is IGF-1 receptor of rat aorta (rat, UniProt P24062 31-1370).
Sequence of IGF-1 receptor of rat aorta (P24062 31-1370): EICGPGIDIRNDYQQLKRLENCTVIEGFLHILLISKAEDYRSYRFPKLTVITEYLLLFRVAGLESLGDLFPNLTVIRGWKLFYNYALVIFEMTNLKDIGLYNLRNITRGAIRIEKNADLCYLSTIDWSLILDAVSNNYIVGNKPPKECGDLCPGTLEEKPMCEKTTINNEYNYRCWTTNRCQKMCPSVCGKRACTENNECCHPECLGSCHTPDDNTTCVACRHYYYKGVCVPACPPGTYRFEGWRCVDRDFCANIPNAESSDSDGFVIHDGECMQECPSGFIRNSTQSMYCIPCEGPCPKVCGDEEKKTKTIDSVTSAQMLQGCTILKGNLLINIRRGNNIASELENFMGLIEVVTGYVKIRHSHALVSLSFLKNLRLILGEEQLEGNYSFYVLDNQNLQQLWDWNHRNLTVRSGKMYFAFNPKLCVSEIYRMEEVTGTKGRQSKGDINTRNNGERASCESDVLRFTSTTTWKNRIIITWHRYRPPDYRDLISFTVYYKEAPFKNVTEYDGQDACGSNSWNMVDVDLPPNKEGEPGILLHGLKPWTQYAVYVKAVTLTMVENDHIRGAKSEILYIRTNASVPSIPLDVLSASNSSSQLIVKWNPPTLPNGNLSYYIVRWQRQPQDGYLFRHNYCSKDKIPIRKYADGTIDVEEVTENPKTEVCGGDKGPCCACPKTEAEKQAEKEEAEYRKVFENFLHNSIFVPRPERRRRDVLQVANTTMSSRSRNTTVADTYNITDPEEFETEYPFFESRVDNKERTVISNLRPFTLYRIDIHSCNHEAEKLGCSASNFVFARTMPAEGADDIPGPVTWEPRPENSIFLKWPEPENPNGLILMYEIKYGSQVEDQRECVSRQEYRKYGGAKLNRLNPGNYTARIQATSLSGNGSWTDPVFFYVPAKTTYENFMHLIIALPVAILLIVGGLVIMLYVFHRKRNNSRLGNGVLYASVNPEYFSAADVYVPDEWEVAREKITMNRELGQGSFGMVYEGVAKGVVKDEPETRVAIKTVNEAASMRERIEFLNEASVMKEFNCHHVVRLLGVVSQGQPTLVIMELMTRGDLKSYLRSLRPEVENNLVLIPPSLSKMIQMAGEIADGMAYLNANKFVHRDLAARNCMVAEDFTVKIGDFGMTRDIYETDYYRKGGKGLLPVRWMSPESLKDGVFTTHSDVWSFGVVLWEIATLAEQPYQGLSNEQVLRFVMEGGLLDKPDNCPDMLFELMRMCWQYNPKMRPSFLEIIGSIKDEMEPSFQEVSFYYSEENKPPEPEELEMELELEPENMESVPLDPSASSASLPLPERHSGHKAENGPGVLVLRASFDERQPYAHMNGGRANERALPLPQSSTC

Sequence of human Insulin-like growth factor 1 receptor (IGF-1R) (P08069 31-1367 limits assumed): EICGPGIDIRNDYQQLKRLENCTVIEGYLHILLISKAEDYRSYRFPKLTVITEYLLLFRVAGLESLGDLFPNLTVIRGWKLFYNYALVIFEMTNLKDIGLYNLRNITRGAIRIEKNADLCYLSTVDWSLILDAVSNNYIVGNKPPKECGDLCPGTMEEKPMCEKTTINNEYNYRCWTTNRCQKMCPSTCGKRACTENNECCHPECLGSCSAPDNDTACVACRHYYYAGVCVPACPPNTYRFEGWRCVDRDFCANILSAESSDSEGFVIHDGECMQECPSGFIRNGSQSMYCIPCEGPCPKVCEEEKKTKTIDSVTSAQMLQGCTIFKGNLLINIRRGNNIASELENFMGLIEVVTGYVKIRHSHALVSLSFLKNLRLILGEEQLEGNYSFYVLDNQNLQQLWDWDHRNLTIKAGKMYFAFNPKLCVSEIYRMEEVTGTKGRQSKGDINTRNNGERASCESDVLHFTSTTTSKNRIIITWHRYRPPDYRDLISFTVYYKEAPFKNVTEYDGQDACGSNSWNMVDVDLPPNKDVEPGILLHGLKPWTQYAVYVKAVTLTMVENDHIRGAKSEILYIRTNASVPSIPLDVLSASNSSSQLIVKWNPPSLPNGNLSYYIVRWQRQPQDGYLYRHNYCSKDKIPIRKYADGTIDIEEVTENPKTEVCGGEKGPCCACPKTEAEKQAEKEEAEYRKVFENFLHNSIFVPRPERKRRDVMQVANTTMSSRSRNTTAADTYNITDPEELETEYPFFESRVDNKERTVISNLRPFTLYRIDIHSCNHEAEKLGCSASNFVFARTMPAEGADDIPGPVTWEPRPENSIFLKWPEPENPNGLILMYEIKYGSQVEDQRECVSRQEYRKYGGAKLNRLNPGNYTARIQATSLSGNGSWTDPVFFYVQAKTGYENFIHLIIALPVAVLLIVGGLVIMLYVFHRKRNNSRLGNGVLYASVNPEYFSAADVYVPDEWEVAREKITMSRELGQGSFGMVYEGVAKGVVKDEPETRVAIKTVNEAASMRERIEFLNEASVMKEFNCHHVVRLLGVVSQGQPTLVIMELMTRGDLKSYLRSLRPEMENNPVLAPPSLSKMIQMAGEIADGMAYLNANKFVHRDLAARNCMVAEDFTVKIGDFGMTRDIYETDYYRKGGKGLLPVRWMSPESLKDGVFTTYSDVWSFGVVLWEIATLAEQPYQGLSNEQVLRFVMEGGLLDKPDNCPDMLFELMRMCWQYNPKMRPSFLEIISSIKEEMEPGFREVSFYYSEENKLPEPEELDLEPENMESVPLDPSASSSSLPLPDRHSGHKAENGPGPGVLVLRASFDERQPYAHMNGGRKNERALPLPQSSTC

With MKLPVHKLY [API-103], the “EC50, IL-1 induced proliferation, 3H-thymidine, A549 carcinoma cells” value in experiment [1] was 1000 nM.
Regarding [dY][dT][dV][dE][dL][dA] [API-101.11], in experiment [1], the “percent of IL-1β-induced WI-38 (human lung fibroblasts) proliferation abolished, 3H-thymidine” value came to 100%.
For [dOrn][dY][dT][dP][dE][dL] [API-101.126], in experiment [2], the “Emax (%), IL-1β-induced TF-1 proliferation” value turned out to be 0%.
For [dK][dY][dT][dP][dE][dL][dA] [API-101.114], in experiment [3], the “Emax (%), IL-1β-induced PGE2 synthesis in endothelial cells (porcine)” value was 50% and the “IC50, IL-1β-induced PGE2 synthesis in endothelial cells (porcine)” value is 0.002 nM.
For RTNASVPSI [APG-203], in experiment [4], the “EC50, IGF-1 (50 ng/ml)-induced proliferation, HepG2” value was less than 0.1 nM; the “EC50, IGF-1 (50 ng/ml)-induced proliferation, MCF-7” value (shortened to “EC50 … MCF-7”) was found to be 8 nM; the “EC50, IGF-1 (50 ng/ml)-induced proliferation, MDA-MB-231” value is 0.1 nM; the “Emax, IGF-1 (50 ng/ml)-induced proliferation, MCF-7” value (“Emax … MCF-7” below) was found to be 45%. Further, in experiment [4], the “Emax, IGF-1 (50 ng/ml)-induced proliferation, MDA-MB-231” value stood at 100%. For the same molecule, in experiment [5], the “EC50, inhibition of ex vivo IGF-1-induced vasorelaxation of rat aorta” value (from here on “EC50, inhibition”) was determined as 96 nM and the “Emax, inhibition of ex vivo IGF-1-induced vasorelaxation of rat aorta” value (shortened to “Emax, inhibition”) stood at 50%.
For [dR][dY][dT][dP][dD][dL][dA] [API-101.117], in experiment [3], the “Emax (%), IL-1β-induced PGE2 synthesis in endothelial cells (porcine)” value is 100% and the “IC50, IL-1β-induced PGE2 synthesis in endothelial cells (porcine)” value is 0.01 nM.
Take [dR][dY][dT][dP][dE][dV] [API-101.129]: in experiment [2], the “Emax (%), IL-1β-induced TF-1 proliferation” value is 50% and the “IC50, IL-1β-induced TF-1 proliferation” value is 400 nM.
Consider ENFLHLLLA [APG-205], for which, in experiment [4], the “EC50 … MCF-7” value came out at 0.1 nM; the “EC50, IGF-1 (50 ng/ml)-induced proliferation, MDA-MB-231” value came out at 100 nM; the “Emax … MCF-7” value amounted to 60%; the “Emax, IGF-1 (50 ng/ml)-induced proliferation, MDA-MB-231” value amounted to 100%. In addition, in experiment [5], the “EC50, inhibition” value worked out at 70 nM and the “Emax, inhibition” value turned out to be 25%.
Regarding R[dY][dT][dP][dE][dL] [API-101.135], in experiment [2], the “Emax (%), IL-1β-induced TF-1 proliferation” value is 63%.
For [dR][dY][dT][dV][dQ][dL][dA] [API-101.103], the “IC50, PGE2 measurement, human WI-38 cells” value in experiment [1] turned out to be 50 nM.
Regarding [dR][dF][dV][dP][dE][dL][dA] [API-101.127], the “Emax (%), IL-1β-induced TF-1 proliferation” value in experiment [2] is less than 30%.
Regarding [dK][dY][dT][dP][dE][dL] [API-101.133], the “Emax (%), IL-1β-induced TF-1 proliferation” value in experiment [2] is less than 10%.
KERTVISNLR [APG-206]: in experiment [4], the “EC50, IGF-1 (50 ng/ml)-induced proliferation, HepG2” value was less than 0.1 nM; the “EC50 … MCF-7” value was 2 nM; the “Emax … MCF-7” value amounted to 60%. For the same molecule, in experiment [5], the “EC50, inhibition” value is 689 nM and the “Emax, inhibition” value turned out to be 75%.
In the case of [dR][dW][dT][dP][dE][dL] [API-101.128], in experiment [2], the “Emax (%), IL-1β-induced TF-1 proliferation” value was determined as 100% and the “IC50, IL-1β-induced TF-1 proliferation” value was 3 nM.
As to VGSPKNAVPPV [API-106], the “EC50, IL-1 induced proliferation, 3H-thymidine, A549 carcinoma cells” value in experiment [1] was 10000 nM.
